First the molecules themselves.
B1: Ly466 (bispecific antibody, human IgG1, kappa)
heavy: QVQLKESGPGLVAPSQSLSITCTVSGFSLTDYGVRWIRQPPGKGLEWLGVIWGGGSTYYNSALKSRLSISKDNSKSQVFLKMNSLQTDDTAMYYCAKEKRRGYYYAMDYWGQGTSVTVSSASTKGPSVFPLAPSSKSTSGGTAALGCLVKDYFPEPVTVSWNSGALTSGVHTFPAVLQSSGLYSLSSVVTVPSSSLGTQTYICNVNHKPSNTKVDKKVEPKSCDKTHTCPPCPAPELLGPSVFLFPPKPKDTLMISRTPEVTCVVVDVSHEDPEVKFNWYVDGVEVHNAKTKPREEQYNSTYRVVSVLTVLHQDWLNGKEYKCKVSNKALPAPIEKTISKAKGQPREPQVYTLPPSREEMTKNQVSLTCLVKGFYPSDIAVEWESNGQPENNYKTTPPVLDSDGSFFLYSKLTVDKSRWQQGNVFSCSVMHEALHNHYTQKSLSLSPGGGGGSGGGGSGGGGSGGGGSDIQMTQSPSSLSASVGDRVTITCLASEDISNDLAWYQQKPGKAPKLLIYFVDRLLDGVPSRFSGSGSGTDFTLTISSLQPEDFATYYCQQSYKYPPTFGQGTKLEIKGGGGSGGGGSGGGGSGGGGSEVQLVESGGGLVQPGGSLRLSCAASGFTFTNYGLHWVRQAPGKGLEWVSSISPSGGVTYYRDSVKGRFTISRDNSKNTLYLQMNSLRAEDTAVYYCAKPFLGWGGANWIAHWGQGTLVTVSS
light: ENVLTQSPAIMSASPGEKVTMTCRASSSVSSSYLHWYQQKSGASPKLWIYSTSNLASGVPARFSGSGSGTSYSLTISSVEAEDAATYYCQQYSGYPLTFGGGTKLEIKRTVAAPSVFIFPPSDEQLKSGTASVVCLLNNFYPREAKVQWKVDNALQSGNSQESVTEQDSKDSTYSLSSTLTLSKADYEKHKVYACEVTHQGLSSPVTKSFNRGEC
notes: Ly368 HC-TM559 scFv VL-VH + Ly368 LC
B2: Ly467 (bispecific antibody, human IgG1, kappa)
heavy: QVQLKESGPGLVAPSQSLSITCTVSGFSLTDYGVRWIRQPPGKGLEWLGVIWGGGSTYYNSALKSRLSISKDNSKSQVFLKMNSLQTDDTAMYYCAKEKRRGYYYAMDYWGQGTSVTVSSASTKGPSVFPLAPSSKSTSGGTAALGCLVKDYFPEPVTVSWNSGALTSGVHTFPAVLQSSGLYSLSSVVTVPSSSLGTQTYICNVNHKPSNTKVDKKVEPKSCDKTHTCPPCPAPELLGPSVFLFPPKPKDTLMISRTPEVTCVVVDVSHEDPEVKFNWYVDGVEVHNAKTKPREEQYNSTYRVVSVLTVLHQDWLNGKEYKCKVSNKALPAPIEKTISKAKGQPREPQVYTLPPSREEMTKNQVSLTCLVKGFYPSDIAVEWESNGQPENNYKTTPPVLDSDGSFFLYSKLTVDKSRWQQGNVFSCSVMHEALHNHYTQKSLSLSPGGGGGSGGGGSGGGGSGGGGSEVQLVESGGGLVQPGGSLRLSCAASGFTFTNYGLHWVRQAPGKGLEWVSSISPSGGVTYYRDSVKGRFTISRDNSKNTLYLQMNSLRAEDTAVYYCAKPFLGWGGANWIAHWGQGTLVTVSSGGGGSGGGGSGGGGSGGGGSDIQMTQSPSSLSASVGDRVTITCLASEDISNDLAWYQQKPGKAPKLLIYFVDRLLDGVPSRFSGSGSGTDFTLTISSLQPEDFATYYCQQSYKYPPTFGQGTKLEIK
light: ENVLTQSPAIMSASPGEKVTMTCRASSSVSSSYLHWYQQKSGASPKLWIYSTSNLASGVPARFSGSGSGTSYSLTISSVEAEDAATYYCQQYSGYPLTFGGGTKLEIKRTVAAPSVFIFPPSDEQLKSGTASVVCLLNNFYPREAKVQWKVDNALQSGNSQESVTEQDSKDSTYSLSSTLTLSKADYEKHKVYACEVTHQGLSSPVTKSFNRGEC
notes: Ly368 HC-TM559 scFv VH-VL + Ly368 LC
B3: Ly464 (bispecific antibody, human IgG1, kappa)
heavy: QVQLKESGPGLVAPSQSLSITCTVSGFSLTDYGVRWIRQPPGKGLEWLGVIWGGGSTYYNSALKSRLSISKDNSKSQVFLKMNSLQTDDTAMYYCAKEKRRGYYYAMDYWGQGTSVTVSSASTKGPSVFPLAPSSKSTSGGTAALGCLVKDYFPEPVTVSWNSGALTSGVHTFPAVLQSSGLYSLSSVVTVPSSSLGTQTYICNVNHKPSNTKVDKKVEPKSCDKTHTCPPCPAPELLGPSVFLFPPKPKDTLMISRTPEVTCVVVDVSHEDPEVKFNWYVDGVEVHNAKTKPREEQYNSTYRVVSVLTVLHQDWLNGKEYKCKVSNKALPAPIEKTISKAKGQPREPQVYTLPPSREEMTKNQVSLTCLVKGFYPSDIAVEWESNGQPENNYKTTPPVLDSDGSFFLYSKLTVDKSRWQQGNVFSCSVMHEALHNHYTQKSLSLSPG
light: ENVLTQSPAIMSASPGEKVTMTCRASSSVSSSYLHWYQQKSGASPKLWIYSTSNLASGVPARFSGSGSGTSYSLTISSVEAEDAATYYCQQYSGYPLTFGGGTKLEIKRTVAAPSVFIFPPSDEQLKSGTASVVCLLNNFYPREAKVQWKVDNALQSGNSQESVTEQDSKDSTYSLSSTLTLSKADYEKHKVYACEVTHQGLSSPVTKSFNRGECGGGGSGGGGSGGGGSGGGGSDIQMTQSPSSLSASVGDRVTITCKASQNIYIYLNWYQQKPGKAPKLLIYNTNNLQTGVPSRFSGSGSGTDFTLTISSLQPEDFATYYCLQHSSRRTFGGGTKVEIKGGGGSGGGGSGGGGSGGGGSQVQLVESGGGLVQPGGSLKLSCATSGFNFNDYFMNWVRQASGKGLEWVGQIRNKNYNYATYYTESLEGRVTISRDDSKNTAYLQMNSLKTEDTAVYYCTSYYYDGFADYFDYWGQGTTVTVSS
notes: Ly368 HC + Ly368 LC-TM740 scFv VL-VH
B4: Ly465 (bispecific antibody, human IgG1, kappa)
heavy: QVQLKESGPGLVAPSQSLSITCTVSGFSLTDYGVRWIRQPPGKGLEWLGVIWGGGSTYYNSALKSRLSISKDNSKSQVFLKMNSLQTDDTAMYYCAKEKRRGYYYAMDYWGQGTSVTVSSASTKGPSVFPLAPSSKSTSGGTAALGCLVKDYFPEPVTVSWNSGALTSGVHTFPAVLQSSGLYSLSSVVTVPSSSLGTQTYICNVNHKPSNTKVDKKVEPKSCDKTHTCPPCPAPELLGPSVFLFPPKPKDTLMISRTPEVTCVVVDVSHEDPEVKFNWYVDGVEVHNAKTKPREEQYNSTYRVVSVLTVLHQDWLNGKEYKCKVSNKALPAPIEKTISKAKGQPREPQVYTLPPSREEMTKNQVSLTCLVKGFYPSDIAVEWESNGQPENNYKTTPPVLDSDGSFFLYSKLTVDKSRWQQGNVFSCSVMHEALHNHYTQKSLSLSPG
light: ENVLTQSPAIMSASPGEKVTMTCRASSSVSSSYLHWYQQKSGASPKLWIYSTSNLASGVPARFSGSGSGTSYSLTISSVEAEDAATYYCQQYSGYPLTFGGGTKLEIKRTVAAPSVFIFPPSDEQLKSGTASVVCLLNNFYPREAKVQWKVDNALQSGNSQESVTEQDSKDSTYSLSSTLTLSKADYEKHKVYACEVTHQGLSSPVTKSFNRGECGGGGSGGGGSGGGGSGGGGSQVQLVESGGGLVQPGGSLKLSCATSGFNFNDYFMNWVRQASGKGLEWVGQIRNKNYNYATYYTESLEGRVTISRDDSKNTAYLQMNSLKTEDTAVYYCTSYYYDGFADYFDYWGQGTTVTVSSGGGGSGGGGSGGGGSGGGGSDIQMTQSPSSLSASVGDRVTITCKASQNIYIYLNWYQQKPGKAPKLLIYNTNNLQTGVPSRFSGSGSGTDFTLTISSLQPEDFATYYCLQHSSRRTFGGGTKVEIK
notes: Ly368 HC + Ly368 LC-TM740 scFv VH-VL

The target of this assay is T1, human CD40 expressed on CHO cells (human, UniProt P25942 21-277).
T1 construct: whole, on cells; also used for the reporter cells over-expressing human CD40; also called cellular CD40; CHO-CD40 cells
T1 sequence (P25942 21-277): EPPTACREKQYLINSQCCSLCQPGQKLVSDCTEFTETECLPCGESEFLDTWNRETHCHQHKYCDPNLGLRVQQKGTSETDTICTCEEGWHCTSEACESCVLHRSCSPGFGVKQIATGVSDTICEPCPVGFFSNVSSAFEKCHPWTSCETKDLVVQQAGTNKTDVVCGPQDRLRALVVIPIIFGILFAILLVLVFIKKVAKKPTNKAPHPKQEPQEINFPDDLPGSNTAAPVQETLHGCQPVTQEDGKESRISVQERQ
The assay is described as follows: FACS, CHO cells. For orientation: Flow cytometry measures light scatter and fluorescence of single cells or particles in a stream.
For the molecule B1, the binding result is reported as “binds”. Next, B2: “binds”. Under B3 stands “binds”; under B4, “binds”.

For the origin of these results see patent publication US20220372155A1 (LYVGEN BIOPHARMA, published 2022).
